According to patent publication US20230235012A1 (ALPINE IMMUNE SCIENCES, published 2023):

T1: human ICOS (human, UniProt Q9Y6W8 21-199)
T1 construct: whole, on cells
T1 sequence (looked up): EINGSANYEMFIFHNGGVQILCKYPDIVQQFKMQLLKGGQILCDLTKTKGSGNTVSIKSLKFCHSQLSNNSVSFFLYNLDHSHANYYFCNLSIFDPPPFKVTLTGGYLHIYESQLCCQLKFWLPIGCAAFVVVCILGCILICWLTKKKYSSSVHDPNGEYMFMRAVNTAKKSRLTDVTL

T2: human ICOS, full-length, expressed on transfected Expi293 cells (human, UniProt Q9Y6W8 21-199)
T2 construct: whole, on cells
T2 sequence (looked up): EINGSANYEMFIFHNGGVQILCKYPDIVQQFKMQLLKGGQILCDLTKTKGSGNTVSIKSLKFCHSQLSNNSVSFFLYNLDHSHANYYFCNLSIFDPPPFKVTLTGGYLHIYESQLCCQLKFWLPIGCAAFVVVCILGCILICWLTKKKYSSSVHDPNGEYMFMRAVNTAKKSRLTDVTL


How the values were obtained:
human CTLA-4 = target: T3, human CTLA-4 (human, UniProt P16410 36-223); experiment: flow cytometry, transfected cells; protein from CHO
T3 construct: whole, on cells

human ICOS = target: T1, human ICOS; experiment: as above
human CD28 = target: T4, human CD28 (human, UniProt P10747 19-220); experiment: as above
T4 construct: whole, on cells

[1] = target: T5, human CD28, full-length, expressed on transfected Expi293 cells (human, UniProt P10747 19-220); experiment: flow cytometry, 100 nM, Expi293 cells with human CD28
T5 construct: whole, on cells

[2] = target: T2, human ICOS, full-length, expressed on …; experiment: flow cytometry, 100 nM, Expi293 cells with human ICOS
[3] = target: T6, human CTLA-4, full-length, expressed on transfected Expi293 cells (human, UniProt P16410 36-223); experiment: flow cytometry, 100 nM, Expi293 cells with human CTLA-4
T6 construct: whole, on cells
T6 sequence (P16410 36-223): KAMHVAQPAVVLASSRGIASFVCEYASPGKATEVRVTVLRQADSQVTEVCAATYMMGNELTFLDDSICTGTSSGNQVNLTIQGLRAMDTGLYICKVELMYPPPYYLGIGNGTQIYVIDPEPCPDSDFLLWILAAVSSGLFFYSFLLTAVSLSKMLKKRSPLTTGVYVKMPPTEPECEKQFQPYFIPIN

T3 sequence (P16410 36-223): as above

MFI (human CTLA-4)	MFI ratio to WT (human CTLA-4)	MFI (human ICOS)	MFI ratio to WT (human ICOS)	MFI (human CD28)	MFI ratio to WT (human CD28)	MFI [1]	MFI ratio to WT (ΔWT) [1]	MFI [2]	MFI ratio to WT (ΔWT) [2]	MFI [3]	MFI ratio to WT (ΔWT) [3]	Binder
240000 MFI	31.6 fold	90100 MFI	0.9 fold	91300 MFI	52.8 fold	–	–	–	–	–	–	ICOSL ECD Truncation #6 with N52H/N57Y/Q100R/F172S, Fc fusion (Fc fusion) DTQEKEVRAMVGSDVELSCACPEGSRFDLNDVYVYWQTSESKTVVTYHIPQHSSLEYVDSRYRNRALMSPAGMLRGDFSLRLFNVTPQDEQKFHCLVLSRSLGFQEVLSVEVTLHVAANFSVPVVSAPHSPSQDELTFTCTSINGYPRPNVYWINKTDNSLLDQALQNDTVSLNMRGLYDVVSVLRIARTPSVNIGCCIENVLLGGGGSGGGGSEPKSSDKTHTCPPCPAPEAEGAPSVFLFPPKPKDTLMISRTPEVTCVVVDVSHEDPEVKFNWYVDGVEVHNAKTKPREEQYNSTYRVVSVLTVLHQDWLNGKEYKCKVSNKALPAPIEKTISKAKGQPREPQVYTLPPSREEMTKNQVSLTCLVKGFYPSDIAVEWESNGQPENNYKTTPPVLDSDGSFFLYSKLTVDKSRWQQGNVFSCSVMHEALHNHYTQKSLSLSPG
236000 MFI	31.1 fold	91400 MFI	0.9 fold	84600 MFI	49 fold	–	–	–	–	–	–	ICOSL ECD Truncation #6 with N52H/N57Y/Q100R/C198R, Fc fusion (Fc fusion, not restated for the C198R set) DTQEKEVRAMVGSDVELSCACPEGSRFDLNDVYVYWQTSESKTVVTYHIPQHSSLEYVDSRYRNRALMSPAGMLRGDFSLRLFNVTPQDEQKFHCLVLSRSLGFQEVLSVEVTLHVAANFSVPVVSAPHSPSQDELTFTCTSINGYPRPNVYWINKTDNSLLDQALQNDTVFLNMRGLYDVVSVLRIARTPSVNIGCRIENVLLGGGGSGGGGSEPKSSDKTHTCPPCPAPEAEGAPSVFLFPPKPKDTLMISRTPEVTCVVVDVSHEDPEVKFNWYVDGVEVHNAKTKPREEQYNSTYRVVSVLTVLHQDWLNGKEYKCKVSNKALPAPIEKTISKAKGQPREPQVYTLPPSREEMTKNQVSLTCLVKGFYPSDIAVEWESNGQPENNYKTTPPVLDSDGSFFLYSKLTVDKSRWQQGNVFSCSVMHEALHNHYTQKSLSLSPG
320000 MFI	42.3 fold	108000 MFI	1.1 fold	80600 MFI	46.6 fold	–	–	–	–	–	–	ICOSL ECD Truncation #4 with N52H/N57Y/Q100R/F172S and E200G, Fc fusion (Fc fusion) DTQEKEVRAMVGSDVELSCACPEGSRFDLNDVYVYWQTSESKTVVTYHIPQHSSLEYVDSRYRNRALMSPAGMLRGDFSLRLFNVTPQDEQKFHCLVLSRSLGFQEVLSVEVTLHVAANFSVPVVSAPHSPSQDELTFTCTSINGYPRPNVYWINKTDNSLLDQALQNDTVSLNMRGLYDVVSVLRIARTPSVNIGCCIGNVLLQQNGGGGSGGGGSEPKSSDKTHTCPPCPAPEAEGAPSVFLFPPKPKDTLMISRTPEVTCVVVDVSHEDPEVKFNWYVDGVEVHNAKTKPREEQYNSTYRVVSVLTVLHQDWLNGKEYKCKVSNKALPAPIEKTISKAKGQPREPQVYTLPPSREEMTKNQVSLTCLVKGFYPSDIAVEWESNGQPENNYKTTPPVLDSDGSFFLYSKLTVDKSRWQQGNVFSCSVMHEALHNHYTQKSLSLSPG
308000 MFI	40.7 fold	133000 MFI	1.3 fold	108000 MFI	62.4 fold	–	–	–	–	–	–	ICOSL ECD Truncation #8 with N207G/L208G and N52H/N57Y/Q100R/F172S, Fc fusion (Fc fusion) DTQEKEVRAMVGSDVELSCACPEGSRFDLNDVYVYWQTSESKTVVTYHIPQHSSLEYVDSRYRNRALMSPAGMLRGDFSLRLFNVTPQDEQKFHCLVLSRSLGFQEVLSVEVTLHVAANFSVPVVSAPHSPSQDELTFTCTSINGYPRPNVYWINKTDNSLLDQALQNDTVSLNMRGLYDVVSVLRIARTPSVNIGCCIENVLLQQGGTGGGGSGGGGSEPKSSDKTHTCPPCPAPEAEGAPSVFLFPPKPKDTLMISRTPEVTCVVVDVSHEDPEVKFNWYVDGVEVHNAKTKPREEQYNSTYRVVSVLTVLHQDWLNGKEYKCKVSNKALPAPIEKTISKAKGQPREPQVYTLPPSREEMTKNQVSLTCLVKGFYPSDIAVEWESNGQPENNYKTTPPVLDSDGSFFLYSKLTVDKSRWQQGNVFSCSVMHEALHNHYTQKSLSLSPG
–	–	–	–	–	–	15200 MFI	0.7 fold	205000 MFI	0.97 fold	69100 MFI	0.21 fold	variant ICOSL IgV-Fc fusion N57Q/Q100P (Fc fusion) DTQEKEVRAMVGSDVELSCACPEGSRFDLNDVYVYWQTSESKTVVTYHIPQNSSLEQVDSRYRNRALMSPAGMLRGDFSLRLFNVTPQDEQKFHCLVLSPSLGFQEVLSVEVTLHVAANFSVGSGGGGSEPKSSDKTHTCPPCPAPEAEGAPSVFLFPPKPKDTLMISRTPEVTCVVVDVSHEDPEVKFNWYVDGVEVHNAKTKPREEQYNSTYRVVSVLTVLHQDWLNGKEYKCKVSNKALPAPIEKTISKAKGQPREPQVYTLPPSREEMTKNQVSLTCLVKGFYPSDIAVEWESNGQPENNYKTTPPVLDSDGSFFLYSKLTVDKSRWQQGNVFSCSVMHEALHNHYTQKSLSLSPG
–	–	–	–	–	–	138000 MFI	6.2 fold	238000 MFI	1.12 fold	606000 MFI	1.83 fold	variant ICOSL ECD-Fc fusion, full length N52H/N57Y/Q100R/F172S (Fc fusion, not shown: a dimerising Fc or GST) DTQEKEVRAMVGSDVELSCACPEGSRFDLNDVYVYWQTSESKTVVTYHIPQHSSLEYVDSRYRNRALMSPAGMLRGDFSLRLFNVTPQDEQKFHCLVLSRSLGFQEVLSVEVTLHVAANFSVPVVSAPHSPSQDELTFTCTSINGYPRPNVYWINKTDNSLLDQALQNDTVSLNMRGLYDVVSVLRIARTPSVNIGCCIENVLLQQNLTVGSQTGNDIGERDKITENPVSTGEKNAAT
133000 MFI	17.5 fold	139000 MFI	1.4 fold	59200 MFI	34.3 fold	–	–	–	–	–	–	ICOSL ECD with N52H/N57Y/Q100R/C198R, Fc fusion (Table 30C) (Fc fusion, not restated for the C198R set) DTQEKEVRAMVGSDVELSCACPEGSRFDLNDVYVYWQTSESKTVVTYHIPQHSSLEYVDSRYRNRALMSPAGMLRGDFSLRLFNVTPQDEQKFHCLVLSRSLGFQEVLSVEVTLHVAANFSVPVVSAPHSPSQDELTFTCTSINGYPRPNVYWINKTDNSLLDQALQNDTVFLNMRGLYDVVSVLRIARTPSVNIGCRIENVLLQQNLTVGSQTGNDIGERDKITENPVSTGEKNAATGGGGSGGGGSEPKSSDKTHTCPPCPAPEAEGAPSVFLFPPKPKDTLMISRTPEVTCVVVDVSHEDPEVKFNWYVDGVEVHNAKTKPREEQYNSTYRVVSVLTVLHQDWLNGKEYKCKVSNKALPAPIEKTISKAKGQPREPQVYTLPPSREEMTKNQVSLTCLVKGFYPSDIAVEWESNGQPENNYKTTPPVLDSDGSFFLYSKLTVDKSRWQQGNVFSCSVMHEALHNHYTQKSLSLSPG
83700 MFI	11 fold	54600 MFI	0.5 fold	38900 MFI	22.5 fold	–	–	–	–	–	–	ICOSL ECD Truncation #7 with N52H/N57Y/Q100R/C198R and E90K/E111G, Fc fusion (Fc fusion, not restated for the C198R set) DTQEKEVRAMVGSDVELSCACPEGSRFDLNDVYVYWQTSESKTVVTYHIPQHSSLEYVDSRYRNRALMSPAGMLRGDFSLRLFNVTPQDKQKFHCLVLSRSLGFQEVLSVGVTLHVAANFSVPVVSAPHSPSQDELTFTCTSINGYPRPNVYWINKTDNSLLDQALQNDTVFLNMRGLYDVVSVLRIARTPSVNIGCRIENGGGGSGGGGSEPKSSDKTHTCPPCPAPEAEGAPSVFLFPPKPKDTLMISRTPEVTCVVVDVSHEDPEVKFNWYVDGVEVHNAKTKPREEQYNSTYRVVSVLTVLHQDWLNGKEYKCKVSNKALPAPIEKTISKAKGQPREPQVYTLPPSREEMTKNQVSLTCLVKGFYPSDIAVEWESNGQPENNYKTTPPVLDSDGSFFLYSKLTVDKSRWQQGNVFSCSVMHEALHNHYTQKSLSLSPG
207000 MFI	27.3 fold	106000 MFI	1.1 fold	88300 MFI	51.1 fold	–	–	–	–	–	–	ICOSL ECD Truncation #7 with N52H/N57Y/Q100R/F172S and F83S, Fc fusion (Fc fusion) DTQEKEVRAMVGSDVELSCACPEGSRFDLNDVYVYWQTSESKTVVTYHIPQHSSLEYVDSRYRNRALMSPAGMLRGDFSLRLSNVTPQDEQKFHCLVLSRSLGFQEVLSVEVTLHVAANFSVPVVSAPHSPSQDELTFTCTSINGYPRPNVYWINKTDNSLLDQALQNDTVSLNMRGLYDVVSVLRIARTPSVNIGCCIENGGGGSGGGGSEPKSSDKTHTCPPCPAPEAEGAPSVFLFPPKPKDTLMISRTPEVTCVVVDVSHEDPEVKFNWYVDGVEVHNAKTKPREEQYNSTYRVVSVLTVLHQDWLNGKEYKCKVSNKALPAPIEKTISKAKGQPREPQVYTLPPSREEMTKNQVSLTCLVKGFYPSDIAVEWESNGQPENNYKTTPPVLDSDGSFFLYSKLTVDKSRWQQGNVFSCSVMHEALHNHYTQKSLSLSPG
322000 MFI	42.4 fold	143000 MFI	1.4 fold	75300 MFI	43.6 fold	–	–	–	–	–	–	ICOSL IgV with N52H/N57Y/Q100R and H48R/S54P, Fc fusion (Fc fusion) DTQEKEVRAMVGSDVELSCACPEGSRFDLNDVYVYWQTSESKTVVTYRIPQHSPLEYVDSRYRNRALMSPAGMLRGDFSLRLFNVTPQDEQKFHCLVLSRSLGFQEVLSVEVTLHVAANFSVGGGGSGGGGSEPKSSDKTHTCPPCPAPEAEGAPSVFLFPPKPKDTLMISRTPEVTCVVVDVSHEDPEVKFNWYVDGVEVHNAKTKPREEQYNSTYRVVSVLTVLHQDWLNGKEYKCKVSNKALPAPIEKTISKAKGQPREPQVYTLPPSREEMTKNQVSLTCLVKGFYPSDIAVEWESNGQPENNYKTTPPVLDSDGSFFLYSKLTVDKSRWQQGNVFSCSVMHEALHNHYTQKSLSLSPG
–	–	–	–	–	–	142000 MFI	6.4 fold	200000 MFI	0.94 fold	817000 MFI	2.47 fold	variant ICOSL IgV-Fc fusion N52H/N57Y/Q100R (Fc fusion, not shown: a dimerising Fc or GST) DTQEKEVRAMVGSDVELSCACPEGSRFDLNDVYVYWQTSESKTVVTYHIPQHSSLEYVDSRYRNRALMSPAGMLRGDFSLRLFNVTPQDEQKFHCLVLSRSLGFQEVLSVEVTLHVAANFSV
